Patent US20210079070A1

Tests used:
JRFL SOSIP.664 (HIV-1) = experiment: ELISA on soluble trimer, panel JRFL SOSIP.664, OD 450
[1] = molecular target: BG505 SOSIP.664 Env ectodomain trimer (HIV-1); experiment: ELISA on soluble trimer, panel BG505 SOSIP.664, OD 450
[2] = molecular target: BG505 SOSIP.664 Env ectodomain trimer (HIV-1); experiment: SPR, BG505 SOSIP.664 captured by mAb 2G12, Fab in the flow phase
BG505 DS-SOSIP = experiment: ELISA, panels headed BG505 DS-SOSIP, OD 450
[3] = molecular target: BG505 SOSIP.664 Env ectodomain trimer (HIV-1); experiment: ELISA, BG505 SOSIP.664 coated on the plate, HRP anti-human IgG, OD 450
[4] = molecular target: HIV-1 Env (wild type, as used in the mutagenesis mapping of FIG. 6) (HIV-1); experiment: cell-based or functional assay
[5] = molecular target: HIV-1 Env R304E mutant (HIV-1); experiment: cell-based or functional assay
[6] = molecular target: BG505 SOSIP.664 Env ectodomain trimer (HIV-1); experiment: ELISA, panel 'N6 70-03 Binding to BG505 SOSIP.664', HIV-1 Env mutation: WT

For VRC01 (antibody), the EC50 (read off the curve) (JRFL SOSIP.664 (HIV-1)) was 0.2 µg/mL and the EC50 (read off the curve) [1] was 0.4 µg/mL.

In the case of N6 Fab, the Kd [2] is reported as 0.36 nM.

N6 (antibody) showed an EC50 (read off the curve) (JRFL SOSIP.664 (HIV-1)) of 0.2 µg/mL.

With VRC01 Fab the Kd [2] was 22.1 nM.

B1: VRC06 (antibody, V domains shown)
VH: EVQLVESGPVMRKPGSSMKISCATSGYNFRDFSIHWVRFNRRYGFEWIGWIKPMWGAVNYARQLQGRVSMSRLFSQDLYYPDRGTAYLEFSGLTSADTADYFCVRRGSSCPHCGDFHFEHWGQGTAVVVSA
VL: EIVLTQSPATLSLSPGERATLSCRASQGGNSLNWYQKRRGQTPRLLIYDTSRRASDIPEKFVGSGSGTDFSLTITKVGPEDFAVYYCQQFEFFGLGTTLEIN
For B1, the EC50 (read off the curve) (BG505 DS-SOSIP) was 0.5 µg/mL.

B2: VRC03 (antibody, V domains shown)
VH: QVQLVQSGAVIKTPGSSVKISCRASGYNFRDYSIHWVRLIPDKGFEWIGWIKPLWGAVSYARQLQGRVSMTRQLSQDPDDPDWGVAYMEFSGLTSADTAEYFCVRRGSCDYCGDFPWQYWGQGTWVVSSA
VL: EIVLTQSPGILSLSPGETATLFCKASQGGNAMTWYQKRRGQVPRLLIYDTSRRASGVPDRFVGSGSGTDFFLTINKLDREDFAVYYCQQFEFFGLGSELEVH
Work on B2 yielded an EC50 (read off the curve) (BG505 DS-SOSIP) of 0.3 µg/mL and an EC50 (read off the curve) [3] of 0.8 µg/mL.

B3: N6 70-03 (antibody, V domains shown)
VH: RAHLVQSGTAMKKPGASVRVSCQTSGYTFTAHILFWFRQAPGRGLEWVGWIKPQYGAVNFGGGFRDRVTLTRQLSQDPDDPDWGIAYMDIRGLKPDDTAVYYCARDRSYGDSSWALDAWGQGTTVVVSA
VL: YIHVTQSPSSLSVSIGDRVTINCQTSQGVGSDLHWYQHKPGRAPKLLIHHTSSVEDGVPSRFSGSGFHTSFNLTISDLQADDIATYYCQVLQFFGRGSRLHIK
For B3, the EC50 (read off the curve) (E62K/E64K) was 0.1 µg/mL, the neutralization sensitivity (IC50), Env-pseudovirus infection of TZM-bl cells [4] was 7 ng/mL and the neutralization sensitivity (IC50), Env-pseudovirus infection of TZM-bl cells [5] was 0.053 µg/mL. It also gave a reduction in neutralization sensitivity compared to the WT virus [5] of 8 fold, an EC50 (read off the curve) (JRFL SOSIP.664 (HIV-1)) of 0.2 µg/mL and an EC50 (read off the curve) [1] of 0.2 µg/mL. It also gave an EC50 (read off the curve) [6] of 0.2 µg/mL.

B4: N6 70-03 Fab (Fab, V domains shown)
VH: RAHLVQSGTAMKKPGASVRVSCQTSGYTFTAHILFWFRQAPGRGLEWVGWIKPQYGAVNFGGGFRDRVTLTRQLSQDPDDPDWGIAYMDIRGLKPDDTAVYYCARDRSYGDSSWALDAWGQGTTVVVSA
VL: YIHVTQSPSSLSVSIGDRVTINCQTSQGVGSDLHWYQHKPGRAPKLLIHHTSSVEDGVPSRFSGSGFHTSFNLTISDLQADDIATYYCQVLQFFGRGSRLHIK
B4 gave a Kd [2] of 0.016 nM.
